Source: patent US20030180306A1 (Pfizer, published 2003)

Molecular target: T1, recombinant purified GDF-8 (UniProt O14793 267-375, limits assumed)
T1 sequence (looked up): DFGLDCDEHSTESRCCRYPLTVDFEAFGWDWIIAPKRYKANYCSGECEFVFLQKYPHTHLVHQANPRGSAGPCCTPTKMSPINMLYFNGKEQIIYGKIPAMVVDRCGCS
Test: cell-based or functional assay

- IC50 for inhibition of GDF-8 (20 ng/ml) in the (CAGA)12 luciferase reporter gene assay, RD cells, purified GASP1-V5-His: ~3 nM
B1: mouse GASP1 cloned with a C-terminal V5-His tag (GASP1-V5-His) (other, not shown: small tags and cut ends)
chain: LPPIRYSHAGICPNDMNPNLWVDAQSTCKRECETDQECETYEKCCPNVCGTKSCVAARYMDVKGKKGPVGMPKEATCDHFMCLQQGSECDIWDGQPVCKCKDRCEKEPSFTCASDGLTYYNRCFMDAEACSKGITLSVVTCRYHFTWPNTSPPPPETTVHPTTASPETLGLDMAAPALLNHPVHQSVTVGETVSFLCDVVGRPRPELTWEKQLEDRENVVMRPNHVRGNVVVTNIAQLVIYNVQPQDAGIYTCTARNVAGVLRADFPLSVVRGGQARATSESSLNGTAFPATECLKPPDSEDCGEEQTRWHFDAQANNCLTFTFGHCHHNLNHFETYEACMLACMSGPLATCSLPALQGPCKAYVPRWAYNSQTGLCQSFVYGGCEGNGNNFESREACEESCPFPRGNQHCRACKPRQKLVTSFCRSDFVILGRVSELTEEQDSGRALVTVDEVLKDEKMGLKFLGREPLEVTLLHVDWTCPCPNVTVGETPLIIMGEVDGGMAMLRPDSFVGASSTRRVRKLREVMYKKTCDVLKDFLGLQ
